The chains are these.
B1: H4H2594S (antibody, human IgG4, V domains shown)
VH: EVQLVESGGGLVKPGGSLRLSCAASGFTFSDYYMNWIRQAPGKGLEWVSYISSSGSSIYYADSVKGRFTISRDNAKNSLYLLMNSLRAEDTAVYYCARDGKYNSSPGDYWGQGTLVTVSS
VL: DIQMTQSPSSLSASVGDRVTIACRASQGISNYLAWFQQKPGKAPKSLIYAASSLQSGVPSKFSGSGSGTDFTLTISSLQPEDFATYYCQQYNSYPLTFGGGTKVEIKR
notes: human IgG4 Fc (H4H prefix)
B2: H4H2607B (antibody, human IgG4, V domains shown)
VH: EVQLVESGGGLVKPGGSLRLSCAASGFTFSDYYMNWIRQAPGKGLEWISYLSSSGSATYYADSVKGRFTISRDNAKNSLYLQMNSLRAEDTAVYYCARDGKYNTVAGDYWGQGTTVTVSS
VL: DIQLTQSPSSLSASVGDRVTITCRASQGIRNDLGWYQQKPGKAPKRLIYAASSLQSGVPSRFSGSGSGTEFTLTISSLQPEDFATYYCLQHNSYPYTFGQGTKVEIKR
notes: human IgG4 Fc (H4H prefix)
B3: H4H2597B (antibody, human IgG4, V domains shown)
VH: EVQLVESGGGLVQPGGSLRLSCAVSGFTFSNYAMNWVRQAPGKGLEWVSVISDSGRSTYYADSVKGRFTISRDNSKNTLYLQMNSLRAEDTAVYFCAKRYNWNLHYFDYWGQGTTVTVSS
VL: EIVLTQSPDFQSVTPKEKVTITCRASQSIGGSLHWYQQKPDQSPKLLIKYASQSFSGVPSRFSGSGSGTDFTLTINSLEAEDAATYYCLQSSSLRTFGQGTKVEIKR
notes: human IgG4 Fc (H4H prefix)
B4: H4H2606B (antibody, human IgG4, V domains shown)
VH: EVQLVESGGGLVKPGGSLRLSCAASGFTFSDYYMNWIRQAPGKGLEWVSYISSSGNSIYYADSVKGRFTISRDNAKNSLFLQMSSLRAEDTAVYYCARDGRYNDRRRGYYWGQGTLVTVSS
VL: EIVMTQSPDFQSVTPKEKVTITCRASQSIGSSLHWYQQKPDQSPKLLIKYASQSFSGVPSRFSGSGSGTDFTLTINSLEAEDAATYYCLQSSSLRTFGQGTKVEIKR
notes: human IgG4 Fc (H4H prefix)
B5: H2M1233N (antibody, mouse IgG2, V domains shown)
VH: QVVLVESGGGVVQPGRSLRLSCAASGFTFSSYGMHWVRQAPGKGLEWVAVIWYDGSNKYYVDSVKGRFTISRDNSNNTIYLQMNSLRAEDTAVYYCARSLIPVAGTDPIFGYWGQGTLVTVSS
VL: DIQMTQSPSTLSASVGDRVTITCRASQSVSSWLAWYQQKPGKAPKLLIFKASGLESGVPFRFSGSGSGTEFTLTISSLQPDDFATYYCQQYNTYSPTFGQGTKVEIK
notes: chimeric: human variable domains, mouse IgG2 Fc (H2M prefix)
B6: H2M1242N (antibody, mouse IgG2, V domains shown)
VH: EVQLVESGGGLVRPGGSLRLSCAASGFTFTSYAMNWVRQAPGKGLEWVSSISSYSSYIYIADSVKGRFTLSRDNAKNSLYLQMHSLRPEDTAVYFCAREGYSAYSYFDFWGRGTLVTVSS
VL: DIQMTQSPSTLSASVGDRVTITCRASQSVISWLAWYQQKPGKAPKLLIHRASSLESGVPSRFSGSGSGTEFTLTISGLQPDDFATYYCQQYNTYFPTFGQGTKVEVK
notes: as for B5
B7: H2M1237N (antibody, mouse IgG2, V domains shown)
VH: QVVLVESGGGVVQPGRSLRLSCAASGFTFSSYGMHWVRQAPGKGLEWVAVIWYDGSIKYYADSVKGRFTISRDNSNNTIYLQMNSLRAEDTAVYYCARALIPVAGTDPIFGYWGQGTLVTVSS
VL: DIQMTQSPSTLSASVGDRVTITCRASQSVSSWLAWYQQKPGKAPKLLIFKTSGLESGVPFRFSGSGSGTEFTLTISSLQPDDFATYYCQQYNTYSPTFGQGTKVEIK
notes: as for B5
B8: H4H2797P (antibody, human IgG4, V domains shown)
VH: QVQLVESGGGVVLPGRSLRLSCAASGFTFSSYLMYWVRQAPGKGLEWVAVIWYDGSNKFYGDSVKGRFTISRDNSKNTLYLQMNSLRAEDTAVYYCARDNGNSGYEDSWNAFDIWGQGTMVTVSS
VL: DIQMTQSPSSLSASVGDRVTITCRASQDIYNYLAWFQQKPGKAPKSLIYAASSLQTGVPSQFSGSGSGTDFTLTISSLQPEDFATYYCQQYNNYPFTFGPGTKVDIK
notes: human IgG4 Fc (H4H prefix)
B9: H2M1236N (antibody, mouse IgG2, V domains shown)
VH: QVQLQESGPGLVKPSETLSLTCTVSGGSISNYYWSWIRQPPGKGLEWIGYIYYSGRTNYNPSLKSRVTISVDTSKNQFSLKLRSVTAADTAVYYCARHRITRTADSFDYWGQGTLVTVSS
VL: DIQMTQSPSSLSASVGDRVTITCQASQDITNYLNWYQQKPGKAPKLLIYDASNLETGVPSRFSGSGSGTDFTFTISSLQPEDVATFYCHQYGDLPYTFGQGTKLEIK
notes: as for B5
B10: H1M1230N (antibody, V domains shown)
VH: EVQLVESGGGLVQPGGSLRLSCTASGFIFSNFWMTWVRQAPGKGLEWVANIKQDGSETYCVDSVKGRFTISRDHAKNSLFLQMNSLRAEDTAVYYCARGAGTIYYYGMDVWGQGTTVIVSS
VL: DIQMTQSPSSVSASVGDRLTITCRASQDISSWLTWYQQKPGKAPNLLIYAASGLQSGVPSRFSGSGSGTDFTLTISNLQPEDFATYYCQQANSFPLTFGQGTRLEIK
notes: chimeric: human variable domains, mouse constant domains (H1M prefix, mouse Fc)
B11: H1M1234N (antibody, V domains shown)
VH: QVQLQQSGPGLVKSSQTLSLTCAISGDSVSSNSVAWNWIRQSPSRGLEWLGRTYYRSKWYNDYAVSVKSRININPDTSKNHFSLQLNSVTPEDTAVYFCARAWNWYYLDYWGQGTLVTVSS
VL: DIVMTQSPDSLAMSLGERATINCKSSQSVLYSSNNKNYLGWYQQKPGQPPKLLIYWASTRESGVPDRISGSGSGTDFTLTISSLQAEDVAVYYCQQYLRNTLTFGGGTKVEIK
notes: as for B10
B12: H1M1241N (antibody, V domains shown)
VH: EVQLVESGGGLVKPGGSLRLSCAASGFTFSSYSMNWVRQAPGKGLEWVSSISSRSSYIYYADSVKGRFTISRDNAKNSLYLQMNSLRAEDTAVYYCARDHIVVVPGASYYYYGMDVWGQGTTVTVSS
VL: DIQMTQSPSSLSASVGDRVTITCRASQGIRNDLGWYQQKPGKAPKRLISAASSLQSGVPSRFSGSGSGTEFTLTISSLQPEDFATYYCLQHNSYPLTFGGGTKVEIK
notes: as for B10
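Also: rate constants obtained by fitting association and dissociation phases to a one-to-one binding model, with Kd and half-life derived from those rate constants.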

T1 sequence (P30438 other isoform, or with tags, fused parts or gaps, chain 1 of 2): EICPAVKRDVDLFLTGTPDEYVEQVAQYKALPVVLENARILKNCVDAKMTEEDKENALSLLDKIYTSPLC
T1 sequence (P30440 18-109, chain 2 of 2): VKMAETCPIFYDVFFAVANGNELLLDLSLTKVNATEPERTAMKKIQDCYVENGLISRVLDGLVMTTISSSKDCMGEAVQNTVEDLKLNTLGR

The assay has as its target T1, natural Fel d1 (Indoor Biotech, #NA-FD1-2) (cat, UniProt P30438 23-92; P30440 18-109).
T1 construct: Bought natural heterodimeric glycoprotein, chains linked by disulfide bonds; also called nFel d1; nFel d 1
As to the kind of experiment: SPR (Biacore), mAb captured, natural Fel d1 injected, 25 C. (Surface plasmon resonance follows binding to a sensor surface in real time, without labels.)
On to B1, for which the affinity, expressed as Kd, was 0.878 nM; the koff (as a rule, the first-order rate constant of dissociation) was determined as 0.000965 s⁻¹; the kon (in general, the rate constant with which the complex forms) is 1.1e+06 M⁻¹ s⁻¹; the t1/2 amounted to 12 min.

For the molecule B2, the Kd (usually the equilibrium constant for the complex coming apart) turned out to be 0.307 nM, the koff was determined as 0.00091 s⁻¹, the kon is 2.97e+06 M⁻¹ s⁻¹ and the t1/2 came out at 13 min.

With B3, the dissociation constant Kd worked out at 0.65 nM, the off-rate constant (koff) is 0.0015 s⁻¹, the kon was 2.31e+06 M⁻¹ s⁻¹ and the t1/2 was 8 min.

The molecule B4 showed a Kd of 0.765 nM, a dissociation rate constant (koff) of 0.000707 s⁻¹, an association rate constant (kon) of 924000 M⁻¹ s⁻¹ and a t1/2 of 16 min.

B5 came in with a Kd of 1.4 nM, a dissociation rate constant (koff) of 0.000353 s⁻¹, a kon of 253000 M⁻¹ s⁻¹ and a t1/2 of 33 min.

The molecule B6 came in with a Kd of 3.14 nM, an off-rate constant (koff) of 0.000604 s⁻¹, a kon of 192000 M⁻¹ s⁻¹ and a t1/2 of 19 min.

B7 gave a Kd of 0.982 nM, a koff of 0.000276 s⁻¹, a kon of 281000 M⁻¹ s⁻¹ and a t1/2 of 42 min.

Turning to B8, binding was put at a Kd of 35.4 nM, the koff came out at 0.00713 s⁻¹, the association rate constant (kon) came out at 202000 M⁻¹ s⁻¹ and the t1/2 is 2 min.

Consider B9, for which the Kd is 4.55 nM, the koff stood at 0.00142 s⁻¹, the kon was determined as 312000 M⁻¹ s⁻¹ and the t1/2 stood at 8 min.

B10 returned a Kd of 3.37 nM, a koff of 0.000869 s⁻¹, a kon of 258000 M⁻¹ s⁻¹ and a t1/2 of 13 min.

B11 came in with a Kd of 18.3 nM, a koff of 0.00679 s⁻¹, a kon of 371000 M⁻¹ s⁻¹ and a t1/2 of 2 min.

B12 displayed a Kd of 3.63 nM, an off-rate constant (koff) of 0.000662 s⁻¹, a kon of 182000 M⁻¹ s⁻¹ and a t1/2 of 17 min.

Values taken from patent US20220025029A1 (Regeneron, published 2022).
